Results: publication PMC11839890 (European Journal of Nuclear Medicine and Molecular Imaging, 2024)
Non-standard residues stand in square brackets, D forms with d. Residues, ends and D or L forms follow the SMILES beside them. *: point of attachment. DOTA = O=C(O)CN1CCN(CC(=O)O)CCN(CC(=O)*)CCN(CC(=O)O)CC1; 1Nal = N[C@@H](Cc1cccc2ccccc12)C(=O)O; NMeNle = CCCC[C@H](NC)C(=O)O

Experiments:
[1] = design: method as in PMID 34208516; settings: established for humans from the rat study; cited from earlier work
[2] = Extended single-dose toxicity study in Wistar rats; settings: male, rat, in vivo, intravenous, for humans
Method: The first clinical dose for the therapeutic application was established based on a previous extended singe-dose toxicity study performed on the chemical precursor DOTA-MGS5 in a GLP-compliant laboratory (BSL BIOSERVICE Scientific Laboratories Munich GmbH, Planegg/Munich, Germany). According to applicable guidelines a targeted programme of non-clinical testing was followed. The safety was assessed in a single species and no repeated dose study was performed, as complete clearance between administrations is expected. The study was conducted in male Wister rats and included three dose groups and one control group. The histopathological examination was focused on the main target organs.

in vivo = settings: female, BALB/c nude (athymic), mouse, iv, 20 pmol peptide, total radioactivity
Method: Biodistribution studies were performed in female athymic BALB/c nude mice (Charles River Laboratories, Sulzfeld, Germany) with A431-CCK2R xenografts induced and animals treated as described previously. The study was approved by the Austrian Ministry of Science (2022–0.351.553). […] Statistical analysis was performed on the data sets using the unpaired two-tailed t-test with a significance level of 0.05.

For `CCCC[C@@H](C(=O)N[C@@H](CC(=O)O)C(=O)N[C@@H](Cc1cccc2ccccc12)C(N)=O)N(C)C(=O)[C@H](Cc1c[nH]c2ccccc12)NC(=O)CNC(=O)[C@H](Cc1ccc(O)cc1)NC(=O)[C@H](C)NC(=O)[C@@H](CCC(=O)O)NC(=O)CN1CCN(CC(=O)O)CCN(CC(=O)O)CCN(CC(=O)O)CC1` [DOTA-MGS5, DOTA-DGlu-Ala-Tyr-Gly-Trp-(N-Me)Nle-Asp-1-Nal-NH2], the “NOAEL (no observed adverse effect level)” value [1] is given as 0.4 mg/kg body weight and the 1/100 of NOAEL [2] is given as 4 µg/kg.
In the case of `CCCC[C@@H](C(=O)N[C@@H](CC(=O)O)C(=O)N[C@@H](Cc1cccc2ccccc12)C(N)=O)N(C)C(=O)[C@H](Cc1c[nH]c2ccccc12)NC(=O)CNC(=O)[C@H](Cc1ccc(O)cc1)NC(=O)[C@H](C)NC(=O)[C@@H](CCC(=O)O)NC(=O)CN1CCN(CC(=O)O)CCN(CC(=O)O)CCN(CC(=O)O)CC1` [[^111In]In-DOTA-MGS5, metal not drawn], the tissue uptake at 4 h (in vivo; kidney uptake) is reported as 3.9 ± 0.5 %ID/g and the tissue uptake at 4 h (in vivo; stomach uptake) is reported as 8.2 ± 2.4 %ID/g.
Work on `CSCC[C@H](NC(=O)[C@H](Cc1c[nH]c2ccccc12)NC(=O)CNC(=O)[C@H](Cc1ccc(O)cc1)NC(=O)[C@H](C)NC(=O)[C@@H](CCC(=O)O)NC(=O)CN1CCN(CC(=O)O)CCN(CC(=O)O)CCN(CC(=O)O)CC1)C(=O)N[C@@H](CC(=O)O)C(=O)N[C@@H](Cc1cccc2ccccc12)C(N)=O` [[^111In]In-DOTA-[1Nal^8]MG11, metal not drawn] ({DOTA}-[dE]AYGWMD[1Nal]-NH2) yielded a tissue uptake at 4 h (in vivo; kidney uptake) of 1.1 ± 0.1 %ID/g, a tissue uptake at 4 h (in vivo; stomach uptake) of 1.2 ± 0.3 %ID/g and a tissue uptake at 4 h (in vivo; tumour uptake) of 1.2 ± 0.2 %ID/g.
`CCCC[C@@H](C(=O)N[C@@H](CC(=O)O)C(=O)N[C@@H](Cc1ccccc1)C(N)=O)N(C)C(=O)[C@H](Cc1c[nH]c2ccccc12)NC(=O)CNC(=O)[C@H](Cc1ccc(O)cc1)NC(=O)[C@H](C)NC(=O)[C@@H](CCC(=O)O)NC(=O)CN1CCN(CC(=O)O)CCN(CC(=O)O)CCN(CC(=O)O)CC1` [[^111In]In-DOTA-[(N-Me)Nle^6]MG11, metal not drawn] ({DOTA}-[dE]AYGW[NMeNle]DF-NH2) gave a tissue uptake at 4 h (in vivo; kidney uptake) of 3 ± 0.3 %ID/g, a tissue uptake at 4 h (in vivo; stomach uptake) of 2.9 ± 0.6 %ID/g and a tissue uptake at 4 h (in vivo; tumour uptake) of 12.3 ± 4.2 %ID/g.
